The values that follow are results of earlier work, collected in paper PMC4152934.

The target of data set [1] is AdipoR1 (Mus musculus) (UniProt Q91VH1).
Data set [2] has as its target AdipoR2 (Mus musculus) (UniProt Q8BQS5).
Chain of UniProt Q8BQS5 (Q8BQS5 whole entry): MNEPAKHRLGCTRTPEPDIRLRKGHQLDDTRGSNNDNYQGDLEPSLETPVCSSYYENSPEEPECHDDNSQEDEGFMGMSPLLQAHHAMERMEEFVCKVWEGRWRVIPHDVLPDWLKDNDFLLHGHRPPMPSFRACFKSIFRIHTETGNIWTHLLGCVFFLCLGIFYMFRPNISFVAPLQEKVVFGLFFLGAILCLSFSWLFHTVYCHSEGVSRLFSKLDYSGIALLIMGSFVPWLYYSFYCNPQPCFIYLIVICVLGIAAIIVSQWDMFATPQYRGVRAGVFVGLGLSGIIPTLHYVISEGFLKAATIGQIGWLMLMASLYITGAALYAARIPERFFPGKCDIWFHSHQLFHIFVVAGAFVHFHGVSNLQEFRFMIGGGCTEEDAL

Chain of UniProt Q91VH1 (Q91VH1 whole entry): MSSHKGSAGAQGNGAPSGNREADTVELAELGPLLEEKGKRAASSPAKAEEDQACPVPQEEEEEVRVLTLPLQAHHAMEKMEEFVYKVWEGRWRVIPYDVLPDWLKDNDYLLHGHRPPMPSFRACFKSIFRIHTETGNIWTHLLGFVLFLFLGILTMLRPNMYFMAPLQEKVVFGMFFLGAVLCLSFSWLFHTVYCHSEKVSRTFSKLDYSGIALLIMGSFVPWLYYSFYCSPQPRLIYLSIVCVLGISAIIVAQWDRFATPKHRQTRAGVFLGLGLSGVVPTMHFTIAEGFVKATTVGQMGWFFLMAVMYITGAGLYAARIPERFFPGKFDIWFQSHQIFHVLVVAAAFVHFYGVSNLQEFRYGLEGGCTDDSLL

On to “globular adiponectin trimer globular domain (from UniProt Q60994)”, for which the Kd in data set [1] was 1.14 nM; in data set [2], 14.4 nM.

A word on the Kd: it is a measure of binding affinity in units of concentration.
